Results reported in US20200369755A1 (PROTHENA BIOSCIENCES, published 2020).
Where no end group is shown, it is not given here.

How the values were obtained:
[1] = target: T1, biotinylated tau peptide, amino acid residues 199-213 of SEQ ID NO:3 (human, also: biotinylated, site not given here); experiment: peptide ELISA, epitope mapping of hybridoma positives
T1 construct: One of the overlapping peptides spanning 4R0N human tau
T1 peptide: KSKIGSTENLKHQPG
Procedure: (§1) Additional peptides were used to model potential post-translational modifications of the C- and N-terminal ends of the protein.
(§2) Biotinylated peptides were bound to separate wells of a streptavidin-coated ELISA plate. The plate was blocked and treated with murine 3D6, followed by incubation with a horseradish peroxidase-conjugated anti-mouse antibody. After thorough washing, OPD was applied to the plate and allowed to develop. The plate was read at 450 nm absorbance. Background subtraction was performed with absorbance values from wells containing no primary antibody, and a threshold for positive binding was set to 0.2 absorbance units. […] (FIG. 1)

[2] = target: T2, 64-78 (also: biotinylated, site not given here); experiment: peptide ELISA, biotinylated peptide on streptavidin plate; background-subtracted absorbance; positive from 0.2
T2 construct: also called tau peptide 64-78 (4R0N numbering)
T2 peptide: VTQARMVSKSKDGTG
Procedure: as §1, §2

[3] = target: T3, 334-348 (also: biotinylated, site not given here); experiment: as above
T3 construct: also called tau peptide 334-348 (4R0N numbering)
T3 peptide: IVYKSPVVSGDTSPR
Procedure: as §1, §2

[4] = target: T4, 136-150 (also: biotinylated, site not given here); experiment: as above
T4 construct: also called tau peptide 136-150 (4R0N numbering)
T4 peptide: RSGYSSPGSPGTPGS
Procedure: as §1, §2

[5] = target: T5, 172-186 (also: biotinylated, site not given here); experiment: as above
T5 construct: also called tau peptide 172-186 (4R0N numbering)
T5 peptide: RTPPKSPSSAKSRLQ
Procedure: as §1, §2

[6] = target: T6, 28-42 (also: biotinylated, site not given here); experiment: as above
T6 construct: also called tau peptide 28-42 (4R0N numbering)
T6 peptide: GYTMHQDQEGDTDAG
Procedure: as §1, §2

[7] = target: T7, 280-294 (also: biotinylated, site not given here); experiment: as above
T7 construct: also called tau peptide 280-294 (4R0N numbering)
T7 peptide: EVKSEKLDFKDRVQS
Procedure: as §1, §2

[8] = target: T8, 100-114 (also: biotinylated (site not given here)); experiment: as above
T8 construct: also called tau peptide 100-114 (4R0N numbering)
T8 peptide: APPGQKGQANATRIP
Procedure: as §1, §2

[9] = target: T9, 235-249 (also: biotinylated, site not given here); experiment: as above
T9 construct: also called tau peptide 235-249 (4R0N numbering)
T9 peptide: SKDNIKHVPGGGSVQ
Procedure: as §1, §2

[10] = target: T10, 325-339 (also: biotinylated, site not given here); experiment: as above
T10 construct: also called tau peptide 325-339 (4R0N numbering)
T10 peptide: KAKTDHGAEIVYKSP
Procedure: as §1, §2

[11] = target: T11, 1-15* (acetylated) (also: biotinylated (site not given here)); experiment: as above
T11 construct: also called tau peptide 1-15 (4R0N numbering), acetylated
T11 peptide: Ac-MAEPRQEFEVMEDHA
Procedure: as §1, §2

[12] = target: T12, 73-87 (also: biotinylated, site not given here); experiment: as above
T12 construct: also called tau peptide 73-87 (4R0N numbering)
T12 peptide: SKDGTGSDDKKAKGA
Procedure: as §1, §2

[13] = target: T13, 343-357 (also: biotinylated, site not given here); experiment: as above
T13 construct: also called tau peptide 343-357 (4R0N numbering)
T13 peptide: GDTSPRHLSNVSSTG
Procedure: as §1, §2

[14] = target: T14, 298-312 (also: biotinylated, site not given here); experiment: as above
T14 construct: also called tau peptide 298-312 (4R0N numbering)
T14 peptide: SLDNITHVPGGGNKK
Procedure: as §1, §2

[15] = target: T15, 55-69 (also: biotinylated, site not given here); experiment: as above
T15 construct: also called tau peptide 55-69 (4R0N numbering)
T15 peptide: SLEDEAAGHVTQARM
Procedure: as §1, §2

[16] = target: T16, 271-285 (also: biotinylated, site not given here); experiment: as above
T16 peptide: HHKPGGGQVEVKSEK
Procedure: as §1, §2

[17] = target: T17, 316-330 (also: biotinylated, site not given here); experiment: as above
T17 construct: also called tau peptide 316-330 (4R0N numbering)
T17 peptide: HKLTFRENAKAKTDH
Procedure: as §1, §2

[18] = target: T18, 307-321 (also: biotinylated, site not given here); experiment: as above
T18 construct: also called tau peptide 307-321 (4R0N numbering)
T18 peptide: GGGNKKIETHKLTFR
Procedure: as §1, §2

[19] = target: T19, 19-33 (also: biotinylated, site not given here); experiment: as above
T19 construct: also called tau peptide 19-33 (4R0N numbering)
T19 peptide: GLGDRKDQGGYTMHQ
Procedure: as §1, §2

[20] = target: T20, 244-258 (also: biotinylated, site not given here); experiment: as above
T20 peptide: GGGSVQIVYKPVDLS
Procedure: as §1, §2

B1: murine 3D6 monoclonal antibody (antibody, IgG1, V domains shown)
VH: EVQLQQSGADLVRPGALVKLSCKASGFNIKDYYLHWVRQRPEQGLEWIGWIDPENGDTVYDPKFQGKATITADTSSNTAYLQLGSLTSEDTAVYFCSTLDFWGQGTTLTVSS
VL: not shown
notes: Hybridoma-derived mouse antibody; also called m3D6; mouse 3D6
binding result [1]: binds | binding result [2]: no binding | binding result [3]: no binding | binding result [4]: no binding | binding result [5]: no binding | binding result [6]: no binding | binding result [7]: no binding | binding result [8]: no binding | binding result [9]: no binding | binding result [10]: no binding | binding result [11]: no binding | binding result [12]: no binding | binding result [13]: no binding | binding result [14]: no binding | binding result [15]: no binding | binding result [16]: no binding | binding result [17]: no binding | binding result [18]: no binding | binding result [19]: no binding | binding result [20]: no binding
